Assay results taken from paper PMC9359538.

Assays:
[1] = molecular target: HSV-1 gE expressed from recombinant adenovirus (HSV-1) (UniProt P04488); test: co-IP; lysates of 293 cells infected with adenovirus expressing gE (48 h) or with HSV-1; IP with anti-gE Ab; western blot for Anx-A1; band ratio Anx-A1/gE
[2] = molecular target: HSV-1 glycoprotein E (HSV-1) (UniProt P04488); test: as above

B1: annexin A1 (natural protein)
chain: MAMVSEFLKQAWFIENEEQEYVQTVKSSKGGPGSAVSPYPTFNPSSDVAALHKAIMVKGVDEATIIDILTKRNNAQRQQIKAAYLQETGKPLDETLKKALTGHLEEVVLALLKTPAQFDADELRAAMKGLGTDEDTLIEILASRTNKEIRDINRVYREELKRDLAKDITSDTSGDFRNALLSLAKGDRSEDFGVNEDLADSDARALYEAGERRKGTDVNVFNTILTTRSYPQLRRVFQKYTKYSKHDMNKVLDLELKGDIEKCLTAIVKCATSKPAFFAEKLHQAMKGVGTRHKALIRIMVSRSEIDMNDIKAFYQKMYGISLCQAILDETKGDYEKILVALCGGN
Anx-A1/gE ratio in the co-precipitate [1]: 0.44 | Anx-A1/gE ratio in the co-precipitate [2]: 0.51
